Legend:
HLA-A*24:02 = test: IEDB peptide-MHC binding, purified MHC/competitive/radioactivity; filed as Kd, often an IC50 or EC50 that approximates it; ≥ and ≤ were set here for values at or beyond the usual limits of such assays
HLA-A*23:01 = test: as above
HLA-A*30:02 = test: as above
HLA-A*26:01 = test: as above
HLA-A*29:02 = test: as above
HLA-A*01:01 [1] = test: as above
HLA-B*08:01 = test: as above
HLA-B*15:01 [2] = test: as above; conditions: source organism: Vaccinia virus WR
HLA-B*58:01 = test: IEDB peptide-MHC binding, purified MHC/direct/fluorescence; filed as Kd, often an IC50 or EC50 that approximates it; ≥ and ≤ were set here for values at or beyond the usual limits of such assays; conditions: source organism: SARS-CoV1
HLA-B*15:01 [3] = test: as above; conditions: source organism: SARS-CoV1
HLA-A*01:01 [4] = test: as above; conditions: source organism: SARS-CoV1
HLA-A*24:03 = test: as above; conditions: source organism: Vibrio parahaemolyticus
[5] = source organism: SARS coronavirus Tor2
[6] = source organism: Mammarenavirus lassaense
[7] = source organism: Vaccinia virus WR
[8] = source organism: Dengue virus 4 Philippines/H241/1956
[9] = source organism: Dengue virus 2 Jamaica/1409/1983

Sequence | Kd (HLA-A*24:02; [5]) | Kd (HLA-A*23:01; [5]) | Kd (HLA-A*30:02; [5]) | Kd (HLA-A*26:01; [5]) | Kd (HLA-A*29:02; [5]) | Kd (HLA-A*01:01 [1]; [5]) | other results
AFLPFTLGI | ≥ 81.8 µM | ≥ 45.8 µM | 8.04 µM | ≥ 77.9 µM | 0.529 µM | ≥ 78.1 µM | 
AGFTAGLSY |  |  |  |  |  |  | Kd (HLA-A*24:02; [6]): ≥ 77.5 µM; Kd (HLA-A*23:01; [6]): ≥ 69.9 µM; Kd (HLA-A*30:02; [6]): 0.149 µM; Kd (HLA-A*26:01; [6]): ≥ 77.9 µM; Kd (HLA-A*29:02; [6]): 0.0604 µM; Kd (HLA-A*01:01 [1]; [6]): ≥ 21.1 µM
ANITHFCSF |  |  |  |  |  |  | Kd (HLA-B*08:01; [7]): 10.6 µM; Kd (HLA-B*15:01 [2]): 0.015 µM
ERLQRKHGGM |  |  |  |  |  |  | Kd (HLA-B*08:01; source organism: Dengue virus 3 Martinique/1243/1999): 0.0922 µM
FNKGHFTRL |  |  |  |  |  |  | Kd (HLA-B*08:01; source organism: Vaccinia virus Copenhagen): 0.0163 µM
FTERSDKSY | ≥ 77.6 µM | ≥ 77.8 µM | 0.0535 µM | 6.23 µM | 0.0685 µM |  | Kd (HLA-B*58:01): 2.8 µM; Kd (HLA-B*15:01 [3]): 0.497 µM; Kd (HLA-A*01:01 [4]): 0.065 µM
FVMFGFCYL |  |  |  |  |  |  | Kd (HLA-B*08:01; [7]): 0.865 µM
HAQRIETWIL |  |  |  |  |  |  | Kd (HLA-B*08:01; source organism: Dengue virus 2 Peru/IQT2913/1996): 1.15 µM
HRRDLRLASM |  |  |  |  |  |  | Kd (HLA-B*08:01; [8]): 0.0112 µM
HYVRITGLY | ≥ 22.7 µM | 7.53 µM | ≥ 27.6 µM | 0.149 µM | 0.111 µM | 18.2 µM | 
IKTTAKEVAL |  |  |  |  |  |  | Kd (HLA-B*08:01; [8]): 4.46 µM
ILCVPNAVIL |  |  |  |  |  |  | Kd (HLA-B*08:01; [9]): 5.54 µM
IQPQWIAASI |  |  |  |  |  |  | Kd (HLA-B*08:01; [8]): 0.858 µM
IYNEKVAGF | ≥ 26.6 µM | 19.7 µM | ≥ 22.7 µM | 3.55 µM | 19.8 µM | ≥ 78.1 µM | 
KYLPNGDYI |  |  |  |  |  |  | Kd (HLA-A*24:03): 0.0129 µM
LFCLLNRYF | ≥ 77.6 µM | ≥ 70 µM | ≥ 81.1 µM | 1.14 µM | ≥ 40.4 µM | 3.44 µM | 
LFFFVYENAF | 0.185 µM | 0.0588 µM | ≥ 51.1 µM | 14.5 µM | 0.107 µM | 9.72 µM | 
LHRMDLGVPL |  |  |  |  |  |  | Kd (HLA-B*08:01; [8]): 1.01 µM
LKEPCPSGTY | ≥ 70.3 µM | ≥ 70 µM | 0.0698 µM | 5.44 µM | 1.56 µM | 14.1 µM | 
LTIPPTAGIL |  |  |  |  |  |  | Kd (HLA-B*08:01; [9]): 1.1 µM
LTKHPNQEY | ≥ 77.6 µM | ≥ 77.8 µM | 0.153 µM | ≥ 34.3 µM | 3.4 µM | 17.3 µM | 
LYIIKLVFL | 0.000268 µM | 0.000179 µM | 13.5 µM | ≥ 21 µM | 3.11 µM | 2.15 µM | 
MLKRERNRV |  |  |  |  |  |  | Kd (HLA-B*08:01; [9]): 0.0529 µM
NKDGFLYVY | ≥ 77.6 µM | ≥ 77.8 µM | 2.83 µM | 14.3 µM | 1.13 µM | 13.9 µM | 

Reference: the Immune Epitope Database (IEDB)
